Earlier results in PMC4016011.

Biological target: neuronal nitric oxide synthase PDZ (UniProt P29475)
Sequence (P29475 17-99): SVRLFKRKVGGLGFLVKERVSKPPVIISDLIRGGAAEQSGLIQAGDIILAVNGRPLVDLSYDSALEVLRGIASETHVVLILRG

syntrophin PDZ, sequence (Q13424 87-170): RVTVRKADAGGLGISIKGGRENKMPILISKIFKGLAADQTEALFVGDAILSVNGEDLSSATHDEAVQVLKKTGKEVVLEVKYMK

Kd: 600 nM
Substance: syntrophin PDZ (from UniProt Q13424)
